First the molecules themselves.
B1: TPR 5TU (parent)
chain: GGAUCUUCUCGAUCUAACAAAAAAGACAAAUCUGCCACAAAGCUUGAGAGCAUCUUCGGAUGCAGAGGCGGCAGCCUUCGGUGGCGCGAUAGCGCCAACGUUCUCAACUAUGACACGCAAAACGCGUGCUCCGUUGAAUGGAGUUUAUCAUG

Variants at the floor of the assay were thinned out.

The data set covers variants of B1. As to the kind of experiment: polymerase ribozyme fitness, log enrichment relative to wild type (log ratio); higher = more active; in vitro selection for triplet polymerase activity. The method, boiled down: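 PCR was used to build mutant libraries for each subunit of a heterodimeric triplet polymerase ribozyme, which were then transcribed. A single in vitro selection round, in triplicate, used a frozen incubation at −7 °C and recovered extended constructs by gel excision, streptavidin beads and RT-PCR. Fitness is the logarithm of genotype enrichment relative to wild-type enrichment, averaged over replicates with inverse-variance weights. The logarithm is base 2, and after Illumina sequencing only genotypes with ≥10 input reads and ≥1 read per output were kept.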
For A21U A39C C57U A97G, the “polymerase ribozyme fitness (log ratio)” value is -2.62.

For the variant A21G C93U, the “polymerase ribozyme fitness (log ratio)” value was -0.895. The result for A22C G50A U55G U77C G94A reads -4.04; that for A21G G84U C118U, -1.39; that for A21G U33G A52C U61G A64G U78G C95A A106G A142G, ≤ -4.2. The result for A21U C57A A142U reads -0.38. The value for A21G G58C was 0.298.

For the variant A21U C38G C54U G92A G117U A121G, the “polymerase ribozyme fitness (log ratio)” value was ≤ -4.2.

On to A21U G25C A29U U33A A37U A66C G70C G88U G124U, for which the “polymerase ribozyme fitness (log ratio)” value is ≤ -4.2. With A21U A52G C87U C114U U144G, the “polymerase ribozyme fitness (log ratio)” value is -3.22. For the variant A21U A28C U53A G88C, the “polymerase ribozyme fitness (log ratio)” value is ≤ -4.2.

On to A21U A40G A60G C96G U146G, for which the “polymerase ribozyme fitness (log ratio)” value is -3.99. The value for A21G C57A was 1.14. A22C C85U: the “polymerase ribozyme fitness (log ratio)” value is -0.656. In the case of A22C C85A, the “polymerase ribozyme fitness (log ratio)” value is -1.08. On to A21U C93G, for which the “polymerase ribozyme fitness (log ratio)” value is -2.5. For A21U C57U C93U C96A C116U, the “polymerase ribozyme fitness (log ratio)” value is -1.6. The result for A21G U56C C93U reads -0.835; that for A21G C76A G86U C93G U101C A122G, -0.0234.

Consider A21U A22G G88A A97G A106C C125U, for which the “polymerase ribozyme fitness (log ratio)” value was ≤ -4.2. Turning to A21C G88A U104G A107U, the “polymerase ribozyme fitness (log ratio)” value is ≤ -4.2. With A21G C75U A98G C99G C114U, the “polymerase ribozyme fitness (log ratio)” value was ≤ -4.2. The result for A21G A49U G50A reads -0.423. For the variant A21U G62C A66C G83U A91U G152A, the “polymerase ribozyme fitness (log ratio)” value was ≤ -4.2.

Take A21U C38U C95U A106U U144C: the “polymerase ribozyme fitness (log ratio)” value is -2.96. In the case of A21U G83C, the “polymerase ribozyme fitness (log ratio)” value was -1.57.

Turning to A21U G34A G141A C149G, the “polymerase ribozyme fitness (log ratio)” value is ≤ -4.2. For A21U C69U C87U C96A, the “polymerase ribozyme fitness (log ratio)” value is -1.14. With A21U C96U A113U, the “polymerase ribozyme fitness (log ratio)” value is -2.6.

As to A21G A40U U56A C132A, the “polymerase ribozyme fitness (log ratio)” value is -3.09. The value for A21G A52G U102A was -1.09; that for A21G C38U A60G C85U was 1; that for A21U C93U U144C was -0.648. For the variant A21U C79U C93G, the “polymerase ribozyme fitness (log ratio)” value was ≤ -4.2. The result for A21U C35A G50C A91G U134G reads ≤ -4.2; that for A21U A22U G42A G70C C93U G140C G152U, ≤ -4.2. As to A21G C36U A52U C116U A120U U144C, the “polymerase ribozyme fitness (log ratio)” value is -3.59.

A21U C35U C43U U53A A60U G83C A98G A113G: the “polymerase ribozyme fitness (log ratio)” value was ≤ -4.2.

Turning to A21C U134A, the “polymerase ribozyme fitness (log ratio)” value was -1.79.

Consider A21G A24G C51U U104G A113U, for which the “polymerase ribozyme fitness (log ratio)” value is ≤ -4.2.

As for A22C C27U A52C, the “polymerase ribozyme fitness (log ratio)” value is -2.64. The result for A21U A91G reads -2.85; that for A21U C43A U78G G84U C93U C103G A115G, ≤ -4.2; that for A21U A40C, 1.56. The result for A22C C87U reads -0.775. The value for A21U A30C C51U G71U C85U was ≤ -4.2; that for A22C A29U U33C A47C U53G C95U C105A C118U was ≤ -4.2; that for A21G C85U C96U C105U A106C A138G was ≤ -4.2. In the case of A21U C99U C116U C125U, the “polymerase ribozyme fitness (log ratio)” value was -1.64. The result for A21G G50C G71C C79A C95G A121U U127G G136U U139C A142C U145G reads ≤ -4.2; that for A21U G50C, -3.57.

For the variant A21U G50U, the “polymerase ribozyme fitness (log ratio)” value was determined as 0.281. A21U U56A G81U C85G A107U G141U U144G: the “polymerase ribozyme fitness (log ratio)” value is ≤ -4.2. The result for A21G A52C G83U G84A U90C C95G G100A C103G A107U U139G reads ≤ -4.2; that for A21G G92C, 0.365. For the variant A21U C69U C96A C129A U135A G143U, the “polymerase ribozyme fitness (log ratio)” value was -0.753. Consider A21U C27U C35A C57A G59C G74C G86U A89G U101G, for which the “polymerase ribozyme fitness (log ratio)” value was ≤ -4.2. In the case of A21U C36G C51U U55C G92U U148A, the “polymerase ribozyme fitness (log ratio)” value is ≤ -4.2. For the variant A21U C36A G86A A98C, the “polymerase ribozyme fitness (log ratio)” value is -4.1. On to A21U G59C G126U, for which the “polymerase ribozyme fitness (log ratio)” value amounted to 0.721. The result for A21C U55A reads -0.0725; that for A21U C38A U102A A120U A147C, -2.82. In the case of A21U G80C C85A U127A, the “polymerase ribozyme fitness (log ratio)” value was ≤ -4.2. The result for A21G A37U reads -0.976; that for A21U A29U C85U G141C, ≤ -4.2. For the variant A21G A22U A24G A39U C87A C96A U148C, the “polymerase ribozyme fitness (log ratio)” value was ≤ -4.2. As to A22C G59C G83A A89C, the “polymerase ribozyme fitness (log ratio)” value is -1.16. The value for A21U C118U A119G was -3.17; that for A21U A24U U44A U53G U78G A97U A137C G141C was ≤ -4.2. The value for A22C U33G G50C U78A C87A G126A U135A U144G was -3.83; that for A22C C69G G81C was -1.85; that for A21U A26C A39G A40C G50A G68C C72G U111C was ≤ -4.2.

For the variant A22C C69U C93A U144A, the “polymerase ribozyme fitness (log ratio)” value was -3.99. The result for A21U C96A A110G C116U U145G reads ≤ -4.2. In the case of A21C U33G C87U U145A A150U, the “polymerase ribozyme fitness (log ratio)” value is ≤ -4.2.

For A21U U55G G70A C93A, the “polymerase ribozyme fitness (log ratio)” value is ≤ -4.2. A21G U151C: the “polymerase ribozyme fitness (log ratio)” value is -3.8. Turning to A22C A40U C57U G58A G65A C75A G133A A138U A142C, the “polymerase ribozyme fitness (log ratio)” value was ≤ -4.2. Take A22C A39C U53A G68A A91U U146A: the “polymerase ribozyme fitness (log ratio)” value is ≤ -4.2. With A21U G84C A121U A122C, the “polymerase ribozyme fitness (log ratio)” value was -1.35.

For A21U G80U G94A A147U, the “polymerase ribozyme fitness (log ratio)” value was -0.607. The value for A21C G68C A142G was -4.13. The result for A21U U104C reads 0.212; that for A21U G88A, -3.62.

(Values after the RNAGym collection of RNA variant scans (doi:10.1073/pnas.2313332121).)
